From patent US20260070976A1 (Alector, published 2026)

Columns and labels:
[1] = target: T1, human PILRA G78 on HEK293F cells (human, UniProt Q9UKJ1 20-303); experiment: flow cytometry; HEK293F cells overexpressing human PILRA, goat anti-human IgG Alexa Fluor 647
T1 construct: also called hA; G78 OE
Description: Conditioned media samples containing the tested anti-PILRA antibodies were assessed for binding to HEK293F cells overexpressing human PILRA (hA), human PILRB (hB), and cynomolgus PILRA (cA) by FACS. The conditioned media containing the tested antibodies were incubated with the cells for 30 min at 4° C., washed twice, and then detected with goat anti-human IgG secondary antibody (Alexa Fluor 647) at 1:1000 dilution. The cells were analyzed by flow cytometry on FACS Canto II, and for all cell lines, the reported MFI values were calculated for each conditioned media. These antibodies were evaluated for nonspecific binding using a baculovirus particle (BVP) assay (Jain T., Sun T., Durand S., Hall A., Houston N. R., Nett J. H., Sharkey B., Bobrowicz B., Caffry L, Yu Y., et al. Biophysical properties of the clinical-stage antibody landscape. Proc. Natl. Acad. Sci. USA. 2017; 114:944-949. Doi: 10.1073/pnas.1616408114.). The BVP scores are listed in Table 9, and the higher the score the more nonspecific binding that occurred.

[2] = target: T1, human PILRA G78 on HEK293F cells; experiment: flow cytometry blocking assay; antibody on HEK293F cells overexpressing human PILRA G78, then 5 ug/mL NPDC1 Fc as the blocked ligand; cell-bound NPDC1 Fc read as MFI
Description: A dose response curve of antibodies X0 (PA-29), X1, X2, X7, X11, X12, X13, X14, X16, X18, and X20 was assessed for modulating the binding of Neural Proliferation Differentiation and Control Protein 1 (NPDC1) Fc to 293 cells ectopically expressing human PILRA (HEK293F human PILRA G78 overexpressing cells). Conditioned media samples containing antibodies were incubated with human PILRA overexpressing cells for 30 minutes at 4° C., and then 5 μg/mL NPDC1 Fc was added to this mixture. After 30 minutes of incubation at 4° C., the cells were washed and cell-bound NPDC1 Fc was detected with anti-human IgG Alexa Fluor 647. The cells were analyzed by flow cytometry on FACS Canto II with the percentage of NPDC1 Fc binding in the presence of conditioned media relative to NPDC1 Fc binding alone was calculated. […] All tested antibodies decreased binding of NPDC1 to human PILRA.

[3] = target: T2, cell surface PILRA on human monocytes (human, UniProt Q9UKJ1 20-303); experiment: flow cytometry; Alexa Fluor 647-conjugated antibody on human CD14+ monocytes (second donor sample), Fc receptors blocked, 30 min on ice
T2 construct: Native PILRA on CD14+ monocytes of healthy donors; also called human PILRA; hu mono
Description: Anti-human PILRA antibodies X0 (PA-29) and its affinity matured variants were tested for their abilities to bind cell surface PILRA on human and cynomolgus monocytes. CD14+ monocytes were isolated from healthy human donors using a RosetteSep Human Monocyte Enrichment Cocktail kit (StemCell). Cynomolgus white blood cells were collected from cynomolgus whole blood. In both human and cynomolgus samples, the Fc receptor on the tested monocytes was blocked and the monocytes were treated with Alexa Fluor 647-conjugated PILRA antibodies for 30 minutes on ice. A dose response curve of antibodies X0 (PA-29), X1, X2, X7, X11, X12, X13, X14, X16, X18, and X20 was tested for binding to cell surface PILRA in human and cynomolgus monocytes, and antibodies bound to PILRA in a dose response manner. In another sample of human donor monocytes, a dose response curve of antibodies X0 (PA-29), X1, X2, X11, X13, X18, X29 (PA-43), and X34 (A6) was tested for binding to cell surface PILRA in human and cynomolgus monocytes, and antibodies bound to PILRA in a dose response manner.

T1 sequence (Q9UKJ1 20-303 R78G): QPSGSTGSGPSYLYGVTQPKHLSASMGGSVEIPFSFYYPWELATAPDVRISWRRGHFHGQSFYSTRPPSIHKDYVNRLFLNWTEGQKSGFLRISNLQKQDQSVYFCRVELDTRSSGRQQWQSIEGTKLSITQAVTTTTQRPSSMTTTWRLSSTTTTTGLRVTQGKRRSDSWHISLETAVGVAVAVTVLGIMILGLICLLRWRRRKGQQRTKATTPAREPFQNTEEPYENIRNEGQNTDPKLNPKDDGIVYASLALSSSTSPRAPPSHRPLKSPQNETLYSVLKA
T2 sequence (Q9UKJ1 20-303): as the sequence (Q9UKJ1 20-303 R78G) above, with G59R counted along it

B1: X13 (antibody, human IgG4, V domains shown)
VH: QVQLVQSGAEVKKPGSSVKVSCKASGYNFLHYDVNWVRQAPGQGLEWMGGIIPIFGTANYAQKFQGRVTITADESTSTAYMELSSLRSEDTAVYYCATAVGAGWFDPWGQGTLVTVSS
VL: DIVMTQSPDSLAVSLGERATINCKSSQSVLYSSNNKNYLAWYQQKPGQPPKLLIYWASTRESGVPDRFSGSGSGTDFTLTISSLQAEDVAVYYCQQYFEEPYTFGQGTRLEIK
notes: conditioned media in the HEK293F assays
[1]
  EC50 (read off the curve): ~0.3 µg/mL
[2]
  IC50 (read off the curve): ~0.08 µg/mL
[3]
  EC50 (read off the curve): ~0.1 µg/mL
